# Test results: patent publication US20220220218A1 (JIANGSU HENGRUI MEDICINE, published 2022)
# Substitutions are numbered along the chain they refer to.
# T1: CD73-Myc-His (a fusion protein of the CD73 mature protein extracellular domain and Myc tag and His tag) (human, UniProt P21589 27-547, biotinylated with a kit (sites not given))
# T1 construct: Captured on streptavidin-coated plates in the ELISA; also called biotinylated CD73-myc-his fusion protein; human CD73 protein
# T1 sequence: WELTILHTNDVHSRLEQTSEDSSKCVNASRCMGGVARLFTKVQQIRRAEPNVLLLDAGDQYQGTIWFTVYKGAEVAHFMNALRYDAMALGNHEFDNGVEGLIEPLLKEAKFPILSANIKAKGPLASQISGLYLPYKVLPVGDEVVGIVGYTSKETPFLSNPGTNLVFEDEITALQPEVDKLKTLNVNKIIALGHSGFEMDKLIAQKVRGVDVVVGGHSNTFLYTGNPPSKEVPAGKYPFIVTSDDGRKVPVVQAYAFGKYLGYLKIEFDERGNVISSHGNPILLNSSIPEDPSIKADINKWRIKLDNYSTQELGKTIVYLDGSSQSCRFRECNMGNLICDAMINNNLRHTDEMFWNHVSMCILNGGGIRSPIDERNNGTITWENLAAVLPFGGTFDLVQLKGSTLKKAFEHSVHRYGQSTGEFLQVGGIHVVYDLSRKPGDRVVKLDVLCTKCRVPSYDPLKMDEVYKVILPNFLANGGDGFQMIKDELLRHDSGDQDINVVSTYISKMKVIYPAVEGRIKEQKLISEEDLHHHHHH
# T2: human CD73 (huCD73) protein, antigen of the Biacore assay (human, UniProt P21589 27-547, limits assumed)
# T2 construct: also called human CD73 antigen
# T2 sequence (looked up): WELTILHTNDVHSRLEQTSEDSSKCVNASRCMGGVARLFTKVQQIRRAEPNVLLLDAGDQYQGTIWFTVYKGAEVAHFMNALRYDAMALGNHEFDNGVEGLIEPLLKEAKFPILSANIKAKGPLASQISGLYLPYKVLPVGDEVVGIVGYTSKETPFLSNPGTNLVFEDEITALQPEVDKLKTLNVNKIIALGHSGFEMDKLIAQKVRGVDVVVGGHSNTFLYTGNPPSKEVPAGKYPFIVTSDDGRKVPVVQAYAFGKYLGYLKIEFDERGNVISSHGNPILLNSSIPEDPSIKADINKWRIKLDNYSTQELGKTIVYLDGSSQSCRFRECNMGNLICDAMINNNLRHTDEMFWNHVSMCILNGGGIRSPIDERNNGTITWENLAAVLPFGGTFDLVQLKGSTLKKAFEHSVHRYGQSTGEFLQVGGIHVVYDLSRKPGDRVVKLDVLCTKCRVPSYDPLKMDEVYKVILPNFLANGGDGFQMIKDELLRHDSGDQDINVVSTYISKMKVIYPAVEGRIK
# B1: Hab110.21 (antibody, human IgG1, kappa, V domains shown)
# VH: EVQLVQSGAEVKKPGASVKVSCKASGYTFTSYTMHWVRQAPGQRLEWMGYINPNSFYIEYNQKFKDRVTITRDTSASTAYMELSSLRSEDTAVYYCARGDYDLFYDMDNWGQGTTVTVSS
# VL: DIQMTQSPSSLSASVGDRVTITCRASQDIGNSLNWLQQKPGKAIKRLIYATFRLDSGVPSRFSGSRSGTEYTLTISSLQPEDFATYYCQQYASFPWTFGGGTKVEIKR
# notes: also called humanized antibody of mab110
# B2: Hab127.31d (antibody, human IgG1, kappa, V domains shown)
# VH: EVQLVQSGAEVKKPGASVKVSCKASGYTFTAYFMNWVRQAPGQGLEWMGRIYHNKGDTFYSQKFKGRVTMTVDKSTSTVYMELSSLRSEDTAVYYCATSYVGDWGQGTTVTVSS
# VL: B1 VL with N31D, K42G, I44L, F52S, R53S, R66G, Q89L
# notes: also called humanized antibody of mab127
# B3: Hab108.64 (antibody, human IgG1, kappa, V domains shown)
# VH: EVTLKQSGPGLVKPTETLTLTCTVSGFSLSSYGIQWVRQPPGKGLEWLGVIWSGGSADYNAAFISRLTISKDTSKSQVVLTMTNMDPVDTATYYCAGQYGSVWGQGTLVTVSS
# VL: DIQMTQSPSSLSASVGDRVTITCRASQDIGDRLNWLQQKPGGAIKRLIYATSSLDSGVPKRFSGSGSGTEYTLTISSLQPEDFATYYCLQYAGSWTFGGGTKVEIKR
# notes: also called humanized antibody of mab108
# B4: CPX006 (antibody CPX-006 disclosed in patent application WO2018013611) (antibody, V domains shown)
# VH: QVQLVQSGAEVEKPGASVKVSCKASGYTFTSYWITWVRQAPGQGLEWMGDIYPGSGNTNYNEKFKTRVTITADKSTSTAYMELSSLRSEDTAVYYCAKEGGLTTEDYALDYWGQGTLVTVSS
# VL: EIVLTQSPATLSLSPGERATLSCRASKNVSTSGYSYMHWYQQKPGQAPRLLIYLASNLESGIPPRFSGSGYGTDFTLTINNIESEDAAYYFCQHSRELPFTFGQGTKVEIKR
# Target: T1, CD73-Myc-His (a fusion protein of the …)
# Test: ELISA; biotinylated CD73-myc-his captured on streptavidin plate
# Method: The binding of anti-CD73 antibodies to human CD73 protein was tested by ELISA assay. The biotinylated CD73 fusion protein was immobilized onto a 96-well microtiter plate by binding to the Streptavidin coated on the microtiter plate. The signal strength after the addition of the antibody was used to determine the binding activity of the antibody to CD73. The specific experimental procedures were as follows:
# Streptavidin (Sigma, Cat No. S4762-5MG) was diluted with PBS, pH7.4 (Shanghai BasalMedia, Cat No. B320) buffer to a concentration of […], was added into the 96-well microtiter plate (Corning, Cat No. CLS3590-100EA), 50 μl/well, and incubated in an incubator at 37° C. for 2 hours. The liquid was discarded, 250 μl/well blocking solution (5% skim milk (BD skim milk, Cat No. 232100) diluted in PBS) was added, and incubated in an incubator at 37° C. for 3 hours or at 4° C. overnight (16-18 hours) for blocking. After blocking, the blocking solution was discarded; the plate was washed for 5 times with PBST buffer (PBS containing 0.05% tween-20, pH7.4), 50 μl/well of biotinylated CD73-myc-his fusion protein (Tojin Chemical, Cat No. LK03, biotinylation method was according to the kit's instruction) diluted with sample diluent (PBS containing 1% BSA, pH7.4) was added, and incubated in an incubator at 37° C. 1 hour or at 4° C. overnight. After the incubation was finished, the reaction solution was removed from the microtiter plate, the plate was washed for 5 times with PBST, 50 μl/well of various concentrations of each of the test antibodies (purified hybridoma antibodies or humanized antibodies, diluted with sample diluent) were added, and incubated in an incubator at 37° C. for 1 hour. After the incubation was finished, the plate was washed for 5 times with PBST, 50 µl/well of HRP-labeled goat anti-mouse secondary antibody (Jackson Immuno Research, Cat No. 115-035-003) or goat anti-human secondary antibody (Jackson Immuno Research, Cat No. 109-035-003) diluted with sample diluent was added, and incubated at 37° C. for 1 hour. The plate was washed for 5 times with PBST, 50 μl/well of TMB chromogenic substrate (KPL, Cat No. 52-00-03) was added, incubated at room temperature for 5-10 min, and 50 μl/well of 1M H₂SO₄ was added to stop the reaction.
row,EC50,Binder
1,0.026 nM,B1
2,0.026 nM,B2
3,0.047 nM,B3
4,0.088 nM,B4

# Target: T2, human CD73 (huCD73) protein, antigen of …
# Test: SPR Biacore T200; antibody captured on Protein A chip, CD73 in flow; 1:1 Langmuir
# Text: In this experiment, Biacore instrument was used to determine the affinity of the humanized anti-CD73 antibodies to be tested with human CD73 (huCD73) and monkey CD73 (cynoCD73).
# A certain amount of test antibody was affinity-captured with Protein A biosensing chip (Cat. #29127556, GE), and then a certain concentration of human or monkey CD73 antigen was allowed to flow through the surface of the chip. The reaction signals were detected in real time with Biacore instrument (Biacore T200, GE) to generate a binding and dissociation curve. At the end of each cycle, after the dissociation was completed, the biosensor chip was washed and regenerated with Glycine-HCl, pH1.5 (Cat. #BR-1003-54, GE). The running buffer for the assay was 1×HBS-EP buffer solution (Cat. #BR-1001-88, GE).
# The data obtained from the experiment was fitted against (1:1) Langmuir model using GE Biacore T200 Evaluation version 3.0 software, and the affinity values were obtained, as shown in Table 12 and Table 13 for details.
Kd,koff,kon,Binder
0.0944 nM,6.14e-05 s⁻¹,650000 M⁻¹ s⁻¹,B1
0.257 nM,5.81e-05 s⁻¹,226000 M⁻¹ s⁻¹,B2
0.412 nM,9.24e-05 s⁻¹,224000 M⁻¹ s⁻¹,B3
1.85 nM,0.000368 s⁻¹,199000 M⁻¹ s⁻¹,B4
